Measured values: the Human Domainome abundance scans (Beltran et al. 2025)
± gives the uncertainty stated by the source.

B1: Serine/threonine-protein kinase A-Raf, residues 21 to 89; numbered along this chain, P10398 (parent)
chain: VKVYLPNKQRTVVTVRDGMSVYDSLDKALKVRGLNQDCCVVYRLIKGRKTVTAWDTAIAPLDGEELIVE

Variants of: B1
Test: abundance fitness (aPCA) (normalised: wild type 0, dead -1); higher = more abundant; growth selection in yeast, the domain comes from the species named
Conditions: Homo sapiens

VKVYLPNKQRTVVTVRDGMSVYDSLDKALKVRGLNQDCCVVYRLIYGRKTVTAWDTAIAPLDGEELIVE [K46Y] and VKVYLPNKQRTVVTVRDGMSVYDSLDKALKVRGLNQDCCVVYRLILGRKTVTAWDTAIAPLDGEELIVE [K46L] are within error of each other in abundance fitness: -0.41 ± 0.31 for the first, -0.437 ± 0.063 for the second.

First: VKVYLPNKQRTVVTVRDGMSVYDSLDKALKVRGLNQDCCVVYRLIHGRKTVTAWDTAIAPLDGEELIVE [K46H]
Second: VKVYLPNKQRTVVTVRDGMSVYDSLDKALKVRGLNQDCCVVYRLIRGRKTVTAWDTAIAPLDGEELIVE [K46R]
The abundance fitness of the first is lower: -0.259 ± 0.11 for the first, -0.024 ± 0.034 for the second.

Going from VKVYLPNKQRTVVTVRDGMSVYDSLDKALKVRGLNQDCCVVYRLIWGRKTVTAWDTAIAPLDGEELIVE [K46W] to VKVYLPNKQRTVVTVRDGMSVYDSLDKALKVRGLNQDCCVVYRLICGRKTVTAWDTAIAPLDGEELIVE [K46C], the abundance fitness rises from -0.667 ± 0.093 to -0.133 ± 0.11.

Compared with VKVYLPNKQRTVVTVRDGMSVYDSLDKALKVRGLNQDCCVVYRLIPGRKTVTAWDTAIAPLDGEELIVE [K46P], VKVYLPNKQRTVVTVRDGMSVYDSLDKALKVRGLNQDCCVVYRLIDGRKTVTAWDTAIAPLDGEELIVE [K46D] is higher in abundance fitness: -0.941 ± 0.14 for the first, 0.199 ± 0.2 for the second.

Going from VKVYLPNKQRTVVTVRDGMSVYDSLDKALKVRGLNQDCCVVYRLITGRKTVTAWDTAIAPLDGEELIVE [K46T] to VKVYLPNKQRTVVTVRDGMSVYDSLDKALKVRGLNQDCCVVYRLIQGRKTVTAWDTAIAPLDGEELIVE [K46Q], the abundance fitness rises from -0.383 ± 0.069 to -0.009 ± 0.067.

Going from VKVYLPNKQRTVVTVRDGMSVYDSLDKALKVRGLNQDCCVVYRLIGGRKTVTAWDTAIAPLDGEELIVE [K46G] to VKVYLPNKQRTVVTVRDGMSVYDSLDKALKVRGLNQDCCVVYRLIKGGKTVTAWDTAIAPLDGEELIVE [R48G], the abundance fitness falls from 0.014 ± 0.039 to -0.479 ± 0.056.

VKVYLPNKQRTVVTVRDGMSVYDSLDKALKVRGLNQDCCVVYRLIKGQKTVTAWDTAIAPLDGEELIVE [R48Q] and VKVYLPNKQRTVVTVRDGMSVYDSLDKALKVRGLNQDCCVVYRLIKGHKTVTAWDTAIAPLDGEELIVE [R48H] are within error of each other in abundance fitness: -0.094 ± 0.095 for the first, -0.025 ± 0.38 for the second.

First: VKVYLPNKQRTVVTVRDGMSVYDSLDKALKVRGLNQDCCVVYRLIKGKKTVTAWDTAIAPLDGEELIVE [R48K]
Second: VKVYLPNKQRTVVTVRDGMSVYDSLDKALKVRGLNQDCCVVYRLIKGDKTVTAWDTAIAPLDGEELIVE [R48D]
The abundance fitness of the first is higher: 0.097 ± 0.085 for the first, -0.271 ± 0.094 for the second.

Compared with VKVYLPNKQRTVVTVRDGMSVYDSLDKALKVRGLNQDCCVVYRLIKGEKTVTAWDTAIAPLDGEELIVE [R48E], VKVYLPNKQRTVVTVRDGMSVYDSLDKALKVRGLNQDCCVVYRLIKGCKTVTAWDTAIAPLDGEELIVE [R48C] is lower in abundance fitness: 0.025 ± 0.087 for the first, -0.366 ± 0.15 for the second.

VKVYLPNKQRTVVTVRDGMSVYDSLDKALKVRGLNQDCCVVYRLIKGSKTVTAWDTAIAPLDGEELIVE [R48S] and VKVYLPNKQRTVVTVRDGMSVYDSLDKALKVRGLNQDCCVVYRLIKGMKTVTAWDTAIAPLDGEELIVE [R48M] are within error of each other in abundance fitness: -0.288 ± 0.069 for the first, -0.183 ± 0.1 for the second.

VKVYLPNKQRTVVTVRDGMSVYDSLDKALKVRGLNQDCCVVYRLIKGPKTVTAWDTAIAPLDGEELIVE [R48P] and VKVYLPNKQRTVVTVRDGMSVYDSLDKALKVRGLNQDCCVVYRLIKGFKTVTAWDTAIAPLDGEELIVE [R48F] are within error of each other in abundance fitness: -0.474 ± 0.16 for the first, -0.216 ± 0.18 for the second.

Compared with VKVYLPNKQRTVVTVRDGMSVYDSLDKALKVRGLNQDCCVVYRLIKGAKTVTAWDTAIAPLDGEELIVE [R48A], VKVYLPNKQRTVVTVRDGMSVYDSLDKALKVRGLNQDCCVVYRLIKGLKTVTAWDTAIAPLDGEELIVE [R48L] is lower in abundance fitness: -0.128 ± 0.06 for the first, -0.307 ± 0.062 for the second.

Going from VKVYLPNKQRTVVTVRDGMSVYDSLDKALKVRGLNQDCCVVYRMIKGRKTVTAWDTAIAPLDGEELIVE [L44M] to VKVYLPNKQRTVVTVRDGMSVYDSLDKALKVRGLNQDCCVVYRVIKGRKTVTAWDTAIAPLDGEELIVE [L44V], the abundance fitness falls from 0.069 ± 0.072 to -0.112 ± 0.052.

Going from VKVYLPNKQRTVVTVRDGMSVYDSLDKALKVRGLNQDCCVVYRQIKGRKTVTAWDTAIAPLDGEELIVE [L44Q] to VKVYLPNKQRTVVTVRDGMSVYDSLDKALKVRGLNQDCCVVYRPIKGRKTVTAWDTAIAPLDGEELIVE [L44P], the abundance fitness falls from -0.307 ± 0.1 to -0.853 ± 0.17.

VKVYLPNKQRTVVTVRDGMSVYDSLDKALKVRGLNQDCCVVYRTIKGRKTVTAWDTAIAPLDGEELIVE [L44T] and VKVYLPNKQRTVVTVRDGMSVYDSLDKALKVRGLNQDCCVVYRRIKGRKTVTAWDTAIAPLDGEELIVE [L44R] are within error of each other in abundance fitness: -0.169 ± 0.082 for the first, -0.108 ± 0.044 for the second.

VKVYLPNKQRTVVTVRDGMSVYDSLDKALKVRGLNQDCCVVYRSIKGRKTVTAWDTAIAPLDGEELIVE [L44S] and VKVYLPNKQRTVVTVRDGMSVYDSLDKALKVRGLNQDCCVVYRKIKGRKTVTAWDTAIAPLDGEELIVE [L44K] are within error of each other in abundance fitness: -0.15 ± 0.06 for the first, -0.031 ± 0.076 for the second.

VKVYLPNKQRTVVTVRDGMSVYDSLDKALKVRGLNQDCCVVYRWIKGRKTVTAWDTAIAPLDGEELIVE [L44W] and VKVYLPNKQRTVVTVRDGMSVYDSLDKALKVRGLNQDCCVVYRYIKGRKTVTAWDTAIAPLDGEELIVE [L44Y] are within error of each other in abundance fitness: -0.059 ± 0.067 for the first, -0.037 ± 0.2 for the second.

Compared with VKVYLPNKQRTVVTVRDGMSVYDSLDKALKVRGLNQDCCVVYREIKGRKTVTAWDTAIAPLDGEELIVE [L44E], VKVYLPNKQRTVVTVRDGMSVYDSLDKALKVRGLNQDCCVVYRGIKGRKTVTAWDTAIAPLDGEELIVE [L44G] is lower in abundance fitness: -0.279 ± 0.08 for the first, -0.767 ± 0.09 for the second.

VKVYLPNKQRTVVTVRDGMSVYDSLDKALKVRGLNQDCCVVYRNIKGRKTVTAWDTAIAPLDGEELIVE [L44N] and VKVYLPNKQRTVVTVRDGMSVYDSLDKALKVRGLNQDCCVVYRIIKGRKTVTAWDTAIAPLDGEELIVE [L44I] are within error of each other in abundance fitness: -0.082 ± 0.17 for the first, 0.073 ± 0.082 for the second.

VKVYLPNKQRTVVTVRDGMSVYDSLDKALKVRGLNQDCCVVYRFIKGRKTVTAWDTAIAPLDGEELIVE [L44F] showed an abundance fitness of -0.197 ± 0.13.
